Data set [1] concerns the molecule itself. Put plainly: SEC. Background: SEC sorts molecules by how far they enter the pores of the column.
Substrate in data set [2]: CCCCCCCC(=O)SCCNC(=O)CCNC(=O)[C@H](O)C(C)(C)COP(=O)(O)OP(=O)(O)OC[C@H]1O[C@@H](n2cnc3c(N)ncnc32)[C@H](O)[C@@H]1OP(=O)(O)O
Put plainly: purified protein. The settings on record: 50 mM HEPES-K pH 8.0, 2 mM EDTA, 0.3 mM DTNB, 37 °C.

Substrate in data set [3]: CCCCCCCCCCCCCCCC(=O)SCCNC(=O)CCNC(=O)[C@H](O)C(C)(C)COP(=O)(O)OP(=O)(O)OC[C@H]1O[C@@H](n2cnc3c(N)ncnc32)[C@H](O)[C@@H]1OP(=O)(O)O
As to the kind of experiment: purified protein. The settings on record: 50 mM HEPES-K pH 8.0, 2 mM EDTA, 0.3 mM DTNB, 37 °C.

Substrate in data set [4]: CCCCCC(=O)SCCNC(=O)CCNC(=O)[C@H](O)C(C)(C)COP(=O)(O)OP(=O)(O)OC[C@H]1O[C@@H](n2cnc3c(N)ncnc32)[C@H](O)[C@@H]1OP(=O)(O)O
Put plainly: purified protein. The settings on record: 50 mM HEPES-K pH 8.0, 2 mM EDTA, 0.3 mM DTNB, 37 °C.

Substrate in data set [5]: CC(=O)SCCNC(=O)CCNC(=O)[C@H](O)C(C)(C)COP(=O)(O)OP(=O)(O)OC[C@H]1O[C@@H](n2cnc3c(N)ncnc32)[C@H](O)[C@@H]1OP(=O)(O)O
Put plainly: purified protein. The settings on record: 50 mM HEPES-K pH 8.0, 2 mM EDTA, 0.3 mM DTNB, 37 °C.

Substrate in data set [6]: CCCCCCCCCCCCCCCCCC(=O)SCCNC(=O)CCNC(=O)[C@H](O)C(C)(C)COP(=O)(O)OP(=O)(O)OC[C@H]1O[C@@H](n2cnc3c(N)ncnc32)[C@H](O)[C@@H]1OP(=O)(O)O
As to the kind of experiment: purified protein. The settings on record: 50 mM HEPES-K pH 8.0, 2 mM EDTA, 0.3 mM DTNB, 37 °C.

Substrate in data set [7]: CC(C)(COP(=O)(O)OP(=O)(O)OC[C@H]1O[C@@H](n2cnc3c(N)ncnc32)[C@H](O)[C@@H]1OP(=O)(O)O)[C@@H](O)C(=O)NCCC(=O)NCCSC(=O)CCC(=O)O
As to the kind of experiment: purified protein. To be noted: 50 mM HEPES-K pH 8.0, 2 mM EDTA, 0.3 mM DTNB, 37 °C.

Substrate in data set [8]: CC(C)(COP(=O)(O)OP(=O)(O)OC[C@H]1O[C@@H](n2cnc3c(N)ncnc32)[C@H](O)[C@@H]1OP(=O)(O)O)[C@@H](O)C(=O)NCCC(=O)NCCSC(=O)C[C@@](C)(O)CC(=O)O
Put plainly: purified protein. To be noted: 50 mM HEPES-K pH 8.0, 2 mM EDTA, 0.3 mM DTNB, 37 °C.

Substrate in data set [9]: CC(C)(COP(=O)(O)OP(=O)(O)OC[C@H]1O[C@@H](n2cnc3c(N)ncnc32)[C@H](O)[C@@H]1OP(=O)(O)O)[C@@H](O)C(=O)NCCC(=O)NCCSC(=O)CCCC(=O)O
As to the kind of experiment: purified protein. The settings on record: 50 mM HEPES-K pH 8.0, 2 mM EDTA, 0.3 mM DTNB, 37 °C.

Substrate in data set [10]: CC(C)(COP(=O)(O)OP(=O)(O)OC[C@H]1O[C@@H](n2cnc3c(N)ncnc32)[C@H](O)[C@@H]1OP(=O)(O)O)[C@@H](O)C(=O)NCCC(=O)NCCSC(=O)Cc1ccccc1
Put plainly: purified protein. To be noted: 50 mM HEPES-K pH 8.0, 2 mM EDTA, 0.3 mM DTNB, 37 °C.

Substrate in data set [11]: CC(C(=O)O)C(=O)SCCNC(=O)CCNC(=O)[C@H](O)C(C)(C)COP(=O)(O)OP(=O)(O)OC[C@H]1O[C@@H](n2cnc3c(N)ncnc32)[C@H](O)[C@@H]1OP(=O)(O)O
Put plainly: purified protein. To be noted: 50 mM HEPES-K pH 8.0, 2 mM EDTA, 0.3 mM DTNB, 37 °C.

Substrate in data set [12]: CC(O)CC(=O)SCCNC(=O)CCNC(=O)[C@H](O)C(C)(C)COP(=O)(O)OP(=O)(O)OC[C@H]1O[C@@H](n2cnc3c(N)ncnc32)[C@H](O)[C@@H]1OP(=O)(O)O
Put plainly: purified protein. The settings on record: 50 mM HEPES-K pH 8.0, 2 mM EDTA, 0.3 mM DTNB, 37 °C.

B1: PA5026 (natural protein, Pseudomonas aeruginosa)
chain: MPLPTELARHLTEEKIAFVQRSGLRAEVLEPGYVRLRMPGAGNENHIGSMYAGALFTLAELPGGALFLTSFDSARFYPIVKEMTLRFRRPAKGDIRVEARLDAERIRQLETEAGERGKAEYSLELQLTDEQGEVVAESAALYQLRSHARP
By stoichiometry N is commonly meant a count of units in the complex or per binding partner. In the case of B1, in data set [1], the “stoichiometry N” value worked out at 2.

B2: PA1835 (natural protein, Pseudomonas aeruginosa)
chain: MSQMMQMYQQVGPAQFSAMIGQFAPYFASIAPQFVELRPGYAEVTFPKRREVLNHIGTVHAIALCNAAELAAGTMTDASIPAGHRWIPRGMTVEYLAKATGDVRAVADGSQIDWQATGNLVVPVVAYVDDKPVFRAEITMYVSQA
On to B2, for which the “stoichiometry N” value in data set [1] was determined as 2.

B3: PA5185 (enzyme, Pseudomonas aeruginosa)
chain: MATAPRPLREQYLHFQPISTRWHDNDIYGHVNNVTYYAFFDTAVNTYLIERGGLDIQGGEVIGLVVSSSCDYFAPVAFPQRIEMGLRVARLGNSSVQYELALFLEGQREACAAGRFVHVFVERRSSRPVAIPQELRDALAALQSSAQ
On to B3, for which the “stoichiometry N” value in data set [1] amounted to 4.

B4: PA5202 (enzyme, Pseudomonas aeruginosa, UniProt Q9HTY7 1-129, looked up)
chain: MSEMPAREQMISAYSELVGLDPVSLGDGVAEVRLPMAAHLRNRGGVMHGGALFSLMDVTMGLACSSSHGFDRQSVTLECKINYIRAVADGEVRCVARVLHAGRRSLVVEAEVRQGDKLVAKGQGTFAQL
What is called Km is the substrate concentration at which the rate is half of its maximum. A word on the kcat: it is the maximal rate divided by the concentration of active sites. For orientation: kcat/Km means the turnover number divided by the Michaelis constant. Consider B4, for which the Michaelis constant (Km) came to 400 ± 60 µM in [2]; 20 ± 10 µM in data set [3]; 200 ± 20 µM in data set [4]; 500 ± 100 µM in data set [5]; 5 ± 1 µM in data set [6]; 100 ± 20 µM in data set [7]. The Km is 100 ± 10 µM in [8]; 700 ± 100 µM in data set [9]; 1100 ± 10 µM in data set [10]; 400 ± 40 µM in data set [11]; 500 ± 50 µM in data set [12]. Moreover, the turnover number (kcat) in data set [2] came to 2.4 ± 0.2 s⁻¹; in data set [3], 0.3 ± 0.03 s⁻¹; in data set [5] it was 0.2 ± 0.03 s⁻¹; in data set [6] it was 0.04 ± 0.003 s⁻¹; in data set [7], 0.8 ± 0.03 s⁻¹; in [9], 26.8 ± 0.9 s⁻¹. Also, the figures for the kcat in [10], in data set [11] and in data set [12] were 0.1 ± 0.01 s⁻¹, 0.3 ± 0.01 s⁻¹ and 2 ± 0.1 s⁻¹, respectively. For the same protein, the kcat/Km in [2] was 7000 M⁻¹ s⁻¹; in [3], 13000 M⁻¹ s⁻¹; in data set [5] it was 400 M⁻¹ s⁻¹; in [6], 8000 M⁻¹ s⁻¹; in [7], 7000 M⁻¹ s⁻¹; in data set [9] it was 40000 M⁻¹ s⁻¹. Further, the kcat/Km came out at 100 M⁻¹ s⁻¹ in [10], 800 M⁻¹ s⁻¹ in data set [11] and 4000 M⁻¹ s⁻¹ in data set [12]. Moreover, the “stoichiometry N” value in [1] was determined as 4.

B5: PA2801 (enzyme, Pseudomonas aeruginosa)
chain: MADRQLLHTAHIPVRWGDMDSYGHVNNTLYFQYLEEARVAWFETLGIDLEGAAEGPVVLQSLHTYLKPVVHPATVVVELYAGRLGTSSLVLEHRLHTLEDPQGTYGEGHCKLVWVRHAENRSTPVPDSIRAAIA
B5: the “stoichiometry N” value in [1] came out at 4.

Source of the values: article PMC3836677 (The Biochemical journal, 2012).
